Test results from article PMC4183622.

Tests used:
[1] = molecular target: Tr3DCatch1 (chimeric SpyAvidin tetramer of three core traptavidin subunits and one Dead streptavidin-SpyCatcher subunit) (UniProt P22629); assay: gel shift on SDS-PAGE of unboiled samples, Coomassie staining; SpyAvidin tetramer incubated with the ligand for 1 h at room temperature in PBS; the SpyTag/SpyCatcher link is a covalent isopeptide bond
[2] = molecular target: Tr (core traptavidin), homotetramer Tr4; assay: mixed refolding, ion-exchange chromatography and SDS-PAGE with or without boiling; subunits refolded from dissolved inclusion bodies (alone or mixed) by dilution into PBS; tetramers separated on Q-HP with a NaCl gradient in 20 mM Tris-HCl pH 8.0; tetramers stay assembled on SDS-PAGE unless boiled
[3] = molecular target: Tre (core traptavidin with a C-terminal hexaglutamate tag), homotetramer Tre4; assay: as above

KTag-AffiHER2-SpyTag (SpyTag-linked affibody against HER2)
stoichiometry N [1]: 1

Tr (core traptavidin), homotetramer Tr4 (complex)
stoichiometry N [2]: 4

Tre (core traptavidin with a C-terminal hexaglutamate tag), homotetramer Tre4 (complex)
stoichiometry N [3]: 4
